{"source": "patent US20240192215A1", "about": "(E AND S HEALTHCARE, published 2024)", "binders": {"B1": {"name": "monoclonal antibody B264 (antibody, mouse IgG1, kappa, V domains shown)", "VH": "QVQLQQSGAELARPGASVKMSCKASGYTFTSYTMHWVKQRPGQGLEWIGYINPTSDYTNYNQKFKDKATLTADKSSSTAYMQLSSLTSEDSAVYFCASEGGFLYYFDYWGQGTTLTVSS", "VL": "DVLMTQTPLSLPVSLGDQASISCRSSQSIVHSNGNTYLEWYLQKPGQSPKLLIYKVSNRFSGVPDRFSGSGSGTDFTLKISRVEAEDLGVYYCFQGSHVPYTFGGGTKLEIKR", "notes": "also called AB264; B264 (Trx1-mIgG1)"}}, "experiment_in_all_cases": "peptide microarray, anti-mouse IgG DyLight 650, MMC2 heatmap (Example 17)", "key": {"Peptide_080": {"target": "T1, Peptide_080", "T1 peptide": "QDVASECEVKCMPTF", "procedure": "(§1) 5, 1, 0.2, 0.04, 0.008 and 0.0016 μg/mL serial dilutions were incubated on a single multi-well microarray slide at 30° C. for 1 hour. The slide includes 21 individual mini-arrays (one mini-array per sample dilution).\n(§2) DyLight 650 was used as a label. False-positive binding to a peptide was evaluated by performing one additional control incubation in which only a secondary antibody was applied on the same microarray slide. Before performing each step, the microarrays were washed with a washing buffer.\n(§3) To visualize the obtained results and compare binding regions across individual cultures, as shown in FIGS. 21A to 21D, heatmap diagrams were calculated. In FIGS. 21A to 21D, the fluorescence intensity is expressed in a color-coded manner, white indicates no binding, and red indicates strong binding. For all evaluations, the MMC2-value of the average pixel fluorescence for each peptide was calculated."}, "Peptide_036": {"target": "T2, Peptide_036", "T2 peptide": "GDKLVVVDFSATWCG", "procedure": "as §1, §2, §3"}, "Peptide_011": {"target": "T3, Peptide_011", "T3 peptide": "HHHHHHHHVKQIESK", "procedure": "as §1, §2, §3"}, "Peptide_081": {"target": "T4, Peptide_081", "T4 peptide": "DVASECEVKCMPTFQ", "procedure": "as §1, §2, §3"}, "Peptide_009": {"target": "T5, Peptide_009", "T5 peptide": "SQHHHHHHHHVKQIE", "procedure": "as §1, §2, §3"}, "Peptide_075": {"target": "T6, Peptide_075", "T6 peptide": "DVDDCQDVASECEVK", "procedure": "as §1, §2, §3"}, "Peptide_030": {"target": "T7, Peptide_030", "T7 peptide": "EALDAAGDKLVVVDF", "procedure": "as §1, §2, §3"}, "Peptide_082": {"target": "T8, Peptide_082", "T8 peptide": "VASECEVKCMPTFQF", "procedure": "as §1, §2, §3"}, "Peptide_067": {"target": "T9, Peptide_067", "T9 peptide": "SNVIFLEVDVDDCQD", "procedure": "as §1, §2, §3"}, "Peptide_016": {"target": "T10, Peptide_016", "T10 peptide": "HHHVKQIESKTAFQE", "procedure": "as §1, §2, §3"}, "Peptide_004": {"target": "T11, Peptide_004 (human)", "T11 construct": "15-mer on microarray; not native form, recombinant insert region", "T11 peptide": "AADVHSQHHHHHHHH", "procedure": "as §1, §2, §3"}, "Peptide_037": {"target": "T12, Peptide_037", "T12 peptide": "DKLVVVDFSATWCGP", "procedure": "as §1, §2, §3"}, "Peptide_105": {"target": "T13, Peptide_105", "T13 construct": "also called EFSGANKEKLEATIN", "T13 peptide": "EFSGANKEKLEATIN", "procedure": "as §1, §2, §3"}, "Peptide_074": {"target": "T14, Peptide_074", "T14 peptide": "VDVDDCQDVASECEV", "procedure": "as §1, §2, §3"}, "Peptide_090": {"target": "T15, Peptide_090", "T15 peptide": "CMPTFQFFKKGQKVG", "procedure": "as §1, §2, §3"}, "Peptide_007": {"target": "T16, Peptide_007", "T16 peptide": "VHSQHHHHHHHHVKQ", "procedure": "as §1, §2, §3"}, "Peptide_031": {"target": "T17, Peptide_031", "T17 peptide": "ALDAAGDKLVVVDFS", "procedure": "as §1, §2, §3"}, "Peptide_035": {"target": "T18, Peptide_035", "T18 peptide": "AGDKLVVVDFSATWC", "procedure": "as §1, §2, §3"}, "Peptide_063": {"target": "T19, Peptide_063", "T19 peptide": "SEKYSNVIFLEVDVD", "procedure": "as §1, §2, §3"}, "Peptide_088": {"target": "T20, Peptide_088", "T20 peptide": "VKCMPTFQFFKKGQK", "procedure": "as §1, §2, §3"}, "Peptide_079": {"target": "T21, Peptide_079", "T21 peptide": "CQDVASECEVKCMPT", "procedure": "as §1, §2, §3"}, "Peptide_071": {"target": "T22, Peptide_071", "T22 construct": "also called FLEVDVDDCQDVASE", "T22 peptide": "FLEVDVDDCQDVASE", "procedure": "as §1, §2, §3"}, "Peptide_028": {"target": "T23, Peptide_028", "T23 peptide": "FQEALDAAGDKLVVV", "procedure": "as §1, §2, §3"}, "Peptide_027": {"target": "T24, Peptide_027", "T24 peptide": "AFQEALDAAGDKLVV", "procedure": "as §1, §2, §3"}, "Peptide_072": {"target": "T25, Peptide_072", "T25 peptide": "LEVDVDDCQDVASEC", "procedure": "as §1, §2, §3"}, "Peptide_077": {"target": "T26, Peptide_077", "T26 peptide": "DDCQDVASECEVKCM", "procedure": "as §1, §2, §3"}, "Peptide_060": {"target": "T27, Peptide_060", "T27 peptide": "HSLSEKYSNVIFLEV", "procedure": "as §1, §2, §3"}, "Peptide_100": {"target": "T28, Peptide_100", "T28 peptide": "GQKVGEFSGANKEKL", "procedure": "as §1, §2, §3"}}, "data": [{"binder": "B1", "values": [{"measurement": "binding result", "setting": "Peptide_080", "value": "no binding (tested: 5 ug/mL)"}, {"measurement": "binding result", "setting": "Peptide_036", "value": "no binding (tested: 5 ug/mL)"}, {"measurement": "binding result", "setting": "Peptide_011", "value": "no binding (tested: 5 ug/mL)"}, {"measurement": "binding result", "setting": "Peptide_081", "value": "no binding (tested: 5 ug/mL)"}, {"measurement": "binding result", "setting": "Peptide_009", "value": "no binding (tested: 5 ug/mL)"}, {"measurement": "binding result", "setting": "Peptide_075", "value": "no binding (tested: 5 ug/mL)"}, {"measurement": "binding result", "setting": "Peptide_030", "value": "no binding (tested: 5 ug/mL)"}, {"measurement": "binding result", "setting": "Peptide_082", "value": "no binding (tested: 5 ug/mL)"}, {"measurement": "binding result", "setting": "Peptide_067", "value": "no binding (tested: 5 ug/mL)"}, {"measurement": "binding result", "setting": "Peptide_016", "value": "binds"}, {"measurement": "binding result", "setting": "Peptide_004", "value": "no binding (tested: 5 ug/mL)"}, {"measurement": "binding result", "setting": "Peptide_037", "value": "no binding (tested: 5 ug/mL)"}, {"measurement": "binding result", "setting": "Peptide_105", "value": "no binding (tested: 5 ug/mL)"}, {"measurement": "binding result", "setting": "Peptide_074", "value": "no binding (tested: 5 ug/mL)"}, {"measurement": "binding result", "setting": "Peptide_090", "value": "no binding (tested: 5 ug/mL)"}, {"measurement": "binding result", "setting": "Peptide_007", "value": "no binding (tested: 5 ug/mL)"}, {"measurement": "binding result", "setting": "Peptide_031", "value": "no binding (tested: 5 ug/mL)"}, {"measurement": "binding result", "setting": "Peptide_035", "value": "no binding (tested: 5 ug/mL)"}, {"measurement": "binding result", "setting": "Peptide_063", "value": "no binding (tested: 5 ug/mL)"}, {"measurement": "binding result", "setting": "Peptide_088", "value": "no binding (tested: 5 ug/mL)"}, {"measurement": "binding result", "setting": "Peptide_079", "value": "no binding (tested: 5 ug/mL)"}, {"measurement": "binding result", "setting": "Peptide_071", "value": "no binding (tested: 5 ug/mL)"}, {"measurement": "binding result", "setting": "Peptide_028", "value": "no binding (tested: 5 ug/mL)"}, {"measurement": "binding result", "setting": "Peptide_027", "value": "no binding (tested: 5 ug/mL)"}, {"measurement": "binding result", "setting": "Peptide_072", "value": "no binding (tested: 5 ug/mL)"}, {"measurement": "binding result", "setting": "Peptide_077", "value": "no binding (tested: 5 ug/mL)"}, {"measurement": "binding result", "setting": "Peptide_060", "value": "binds"}, {"measurement": "binding result", "setting": "Peptide_100", "value": "no binding (tested: 5 ug/mL)"}]}]}
